# In the supplement of paper PMC12764529:
# ± gives the half width of the 95% confidence interval.
# Test: folding stability dG unfold from chymotrypsin proteolysis; higher = more stable
# Method in brief: (§1)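 Digests were run with trypsin and chymotrypsin at 11 concentrations in threefold dilutions, plus a no-protease condition, on designed mini-proteins in a PA-tagged cDNA display construct. The mini-proteins were under 80 residues, had no cysteine, and were kept only when AlphaFold2 dimer inter-PAE was above 15. After sequencing, Bayesian fitting of the counts gave K50, from which unfolding free energy was derived against a sequence-predicted unfolded-state K50 and a shared folded-state K50, per protease or combined.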
row,Sequence,folding stability dG unfold [kcal/mol]
1,SAGGSAGGSAGGWNIQVNPDNLKPGKEYRISITHPNGPPIPFEVRLKADGDGDWEFKIESAGGSAGGSAGGS [r10_390_TrROS],0.183 ± 0.12
2,SAGGSAGGSGPNIKVSSSTSTYTLPNGKKVTVKTIVIETENSKYLIVVLTDPNGKSIVFIKPLSAGGSAGGS [r12_213_TrMRF],3.92 ± 0.15
3,SAGMSLVPLEELARAWAEERGLPVLDVEVPESRSPATRHVTITLTLRDPATGALTTETRELVIPEEELGSAG [r5_421_JUSTAS],0.583 ± 0.096
4,SAKIEINPEGGQIEMDYELNGKKVKITIQMPPENGMFPVKIEPPDLGKPIEVPYPFNSVDDMLDWAAEASAG [r14_803_TrROS],0.74 ± 0.13
5,SSAEELARRLAAELAERLPPGARITDVRIERRADGTVTITVTVELPDGRTLTVTITLDLATGEITIEIHPSA [r9_219_TrROS_Hall],4.35 ± 0.26
6,SAGGSAGGSEKEIVLVVKSKEDALKAAEELAKALGLEVEVEVIEVKTLENGEKYVVVKITIKDSAGGSAGGS [r12_924_TrROS_Hall],3.7 ± 0.091
7,SAGGSAGGSPVKDPDGKEVVPIQMTFIIRDPEMGKPVLITITFYIDPAPGGKIKDISIDIFPLSAGGSAGGS [r12_0_TrROS],4.29 ± 0.17
8,SAGGSAMTPEELANVTVEVVTTTEPASPDLTLPDGTRLPPSTTVTTTTEVVVLPGGELLGTRVTVASAGGSA [r15_12_JUSTAS],1.03 ± 0.023
9,SAGKIPPIKDIEPNPDNGMLMITIPFPDDGKLKVRIENKGQDQEYEFPPGMSFMIPPSNAPIKIEIEWDSAG [r14_96_TrROS],0.82 ± 0.069
10,SAGAPSTREFEILELVPLPPGTTAEELRATLEREVELPDDSVARIRVRAVFLSPGPAFALVLYRVEVRESAG [r5_939_TrMRF],3.314 ± 0.015
11,SAGGSAGGSKKALVVFYNPETGEVEVLEVEGDADLLKELFEPGTVVEIRVGDEVITIYPEDLKSAGGSAGGS [r20_36_TrMRF],2.41 ± 0.054
12,SMKPGDVKVIEIEVEYPWPPGDPEKAKEKVRDLVNSIMQEHGYDVDIPVEIEPRDGRYRVEVPIIIRPPNSA [r9_889_TrROS],-0.771 ± 0.36
13,SAGMPAGDFEPVKVEYTIKIPILNEGGGAAAPMPIKVKVEVYRMPNGNLFIKFEIEIPGGNKIEFWFPISAG [r5_580_TrROS],4.32 ± 0.13
14,SAPPYYIVIKFKMELPPPTPEDAKEYDPDGEVRRTTVEMTFVIPIPPEDLEDLKDFMQSLGIEEIEIFKSAG [r14_509_TrROS],2.75 ± 0.032
15,SAGGSAGGSANAKIPDGQKVTLDFRVMIMMRMWQFDENGGKMEPRMMMIPIEVEIEIKIPPNASAGGSAGGS [r12_668_TrROS],5.06 ± 0.14
16,SAGEKTVKIKLPNTKTITVKVKKNEKKILYLPNGEKILITDVKKGKVSLKKGITYVKDKNGKWYPLKYKSAG [r5_417_TrMRF],1.86 ± 0.079
17,SAANPKDIVKAEIEIPGKYGAKFTVYTLPDGTVIVPAEVTLIEGDKPVKKPLVLVVDASTGKILAIADASAG [r14_630_TrMRF],1.68 ± 0.06
18,SAGGSAGGSKKKITRIVITDFDPETGKVTVRIRNENGEEETIEVETLEELKELFPDVEVEVIPSAGGSAGGS [r12_403_TrROS_Hall],2.09 ± 0.044
19,SAGGSAGGSSSSTLISVEPSPGIVTVERPLSLDPVPVVERRIMTVSPSSSLSVTETSVFPVSLLSAGGSAGG [r6_970_JUSTAS],0.932 ± 0.24
20,SAGGSAKLNITKILSVEFSEDGTIRIKVENENGELYELEIKVKVIPPPEKPEIDPKYLTPEDLEKYSAGGSA [r15_41_TrMRF],1.61 ± 0.11
21,SAGGSAGGSASIELPPDATVTLTTLDPATGTVTTTTVKVDSTGTTTLATTTTTVDPASAAAASAGGSAGGSA [r18_248_JUSTAS],1.35 ± 0.028

# Test: folding stability dG unfold (combined trypsin and chymotrypsin); higher = more stable
# Method in brief: as §1
row,Sequence,folding stability dG unfold [kcal/mol]
1,SAGGSAGGSKKVEIKVKVKITNENGETLEVTATIVFDEKTGELYIYDEKTGKVYKISLDDIEPSAGGSAGGS [r12_772_TrROS_Hall],3.53 ± 0.09
2,SAGGSAGGIYIFFPPEDLEPIAPFTITIEVKRRDPDGDEPQPRKQTIPIRIYRAPNNNLMIEPGSAGGSAGG [r6_278_TrROS],0.881 ± 0.087
3,SAGGKKKTAEELAEELKKKLEELGFKVVKIEKLPDGTVLITFEDGYVIKFDVKTGKITIMPKEELEKLSAGG [r13_717_TrROS_Hall],1.96 ± 0.079
4,SAGGFRIERDGDYLRIEIRVNDPPGQPVEEAKNIMKQLFGFKDIKVDEIEPNPNGQAEIEIEIPFPKSAGGS [r16_234_TrROS],0.393 ± 0.12
5,SASNKPRTIEVPIMIPPDDLKEHSPEEFIDWIANELGLPPGKDIKIDVDIEPFEHDGRPYYIIPARIQVSAG [r14_334_TrROS],-0.231 ± 0.22
6,SAGGSAGGEDKYLVVEFTVPEGKAEEFIAEVKKKIPPNWKIERVEIVEKTEDGLYRVRVVLKPGSAGGSAGG [r6_340_TrMRF],4.87 ± 0.086
7,SAGKKQEVTIMIPIRGPAQAREQVEEFANDFPIKPTRVHPNPNKNHYWVMVTMKVPGAKIKIMIWIPPSAGG [r19_262_TrROS],3.67 ± 0.13
8,MVELVEVTRENGLVTVTVANPIPGATLTVEVRDPEGKVLASSTSPSPTVTVTAEIPPDEDFSVTVTQTPPAS [r1_382_JUSTAS],> 6
9,SAGGSAGGSAGDEKYTLTVTIPVPKNAPVLVGAEKGYEVIDLNPDAPVEEGYITVKVEFGSAGGSAGGSAGG [r11_701_TrMRF],-0.391 ± 0.15
10,SAGGKKFKIKEITITYNPDADTVTMTVKLDDGTTVELTFNKETKKLTVKVINKDTGEEKEFEFTLPDSAGGS [r8_363_TrROS_Hall],4.77 ± 0.24
11,SAGGSAKVIMFPSLEEALDLAKEAMGHGKPIQIFLPDGYMIEIEVKPDPDGKPKIDIKWRKLPPDDSAGGSA [r15_761_TrROS],2.55 ± 0.21
12,SAGGKEIEELAKKLAEELGVEVVKVEVEKVGPDTVKVTVTLKDGKKIKIEIKKKKDGSYEIKVEIEPSAGGS [r8_284_TrROS_Hall],2.97 ± 0.3
13,SAGKSIKIPYIIRFPSPNGEPHLMRIKEVTINPKPGMVKIKFQMPGKKQTHTVPPNNIEILPDPEEILKSAG [r5_15_TrROS],-0.0216 ± 0.29
14,SAGGSAGGSKITSIQPHDGFWRIEIKPDGKPQERWINMDELPPNIKIPPGYKVKIEPFSPGDMSAGGSAGGS [r12_1005_TrROS],-0.26 ± 0.26
15,SAGGSAGGSAGMKVEIEVYELPGGERPVKITVTYENKPKEYEKEAETEEEAEEFAKELLESAGGSAGGSAGG [r11_560_JUSTAS],-0.0487 ± 0.57
16,SAGGGSYTIVVELGDKKVVFEIDKEEAVEEAVAKLPELGLEVEVLKKEKVLNEDGKPSVLVEVKVKPSAGGS [r8_336_TrMRF],0.631 ± 0.1
17,SAGGLSGEAKLVEAEFEPETGTVRVFAEAGDELLTFEFKGTPFLPPIPASISPESLEKDEPVIRVSGSAGGS [r16_809_TrMRF],0.422 ± 0.079
18,SAGGSAGGSASSVPARLPDATVLEVTTDPATGLQTALLRFPDGSEVVVTHYPDGSVEVRPLSAGGSAGGSAG [r3_348_JUSTAS],2.47 ± 0.099
19,SAGGSAKTISIIIPFKGLTPEQAIEIAKELEKLLGTKAKIESIPGKGYILVTLELPNKTSYIIIPGSAGGSA [r15_168_TrMRF],2 ± 0.053
20,SAGGSAGGSAMTFKSPEEAKKAAEELEKKTGYKIKITKIEVNEDGEKTVKIEILPPGEKLKSAGGSAGGSAG [r3_59_TrROS_Hall],0.284 ± 0.1
21,SMRIHDSNGQSYTIMIRTPDPNVTPEKIVKAIDEAGYKVTEIQRPPEKGHVHINIRVRDRERAIEAIKELSA [r9_1154_TrROS],0.0402 ± 0.12

row,Sequence,folding stability dG unfold [kcal/mol]
1,SAGGSAGGSAGGWNIQVNPDNLKPGKEYRISITHPNGPPIPFEVRLKADGDGDWEFKIESAGGSAGGSAGGS [r10_390_TrROS],0.134 ± 0.091
2,SAGGSAGGSGPNIKVSSSTSTYTLPNGKKVTVKTIVIETENSKYLIVVLTDPNGKSIVFIKPLSAGGSAGGS [r12_213_TrMRF],3.89 ± 0.28
3,SAGMSLVPLEELARAWAEERGLPVLDVEVPESRSPATRHVTITLTLRDPATGALTTETRELVIPEEELGSAG [r5_421_JUSTAS],0.621 ± 0.1
4,SAKIEINPEGGQIEMDYELNGKKVKITIQMPPENGMFPVKIEPPDLGKPIEVPYPFNSVDDMLDWAAEASAG [r14_803_TrROS],0.433 ± 0.36
5,SSAEELARRLAAELAERLPPGARITDVRIERRADGTVTITVTVELPDGRTLTVTITLDLATGEITIEIHPSA [r9_219_TrROS_Hall],4.89 ± 0.19
6,SAGGSAGGSEKEIVLVVKSKEDALKAAEELAKALGLEVEVEVIEVKTLENGEKYVVVKITIKDSAGGSAGGS [r12_924_TrROS_Hall],3.74 ± 0.2
7,SAGGSAGGSPVKDPDGKEVVPIQMTFIIRDPEMGKPVLITITFYIDPAPGGKIKDISIDIFPLSAGGSAGGS [r12_0_TrROS],4.04 ± 0.17
8,SAGGSAMTPEELANVTVEVVTTTEPASPDLTLPDGTRLPPSTTVTTTTEVVVLPGGELLGTRVTVASAGGSA [r15_12_JUSTAS],0.644 ± 0.043
9,SAGKIPPIKDIEPNPDNGMLMITIPFPDDGKLKVRIENKGQDQEYEFPPGMSFMIPPSNAPIKIEIEWDSAG [r14_96_TrROS],0.874 ± 0.098
10,SAGAPSTREFEILELVPLPPGTTAEELRATLEREVELPDDSVARIRVRAVFLSPGPAFALVLYRVEVRESAG [r5_939_TrMRF],3.22 ± 0.12
11,SAGGSAGGSKKALVVFYNPETGEVEVLEVEGDADLLKELFEPGTVVEIRVGDEVITIYPEDLKSAGGSAGGS [r20_36_TrMRF],2.11 ± 0.058
12,SMKPGDVKVIEIEVEYPWPPGDPEKAKEKVRDLVNSIMQEHGYDVDIPVEIEPRDGRYRVEVPIIIRPPNSA [r9_889_TrROS],-0.409 ± 0.25
13,SAGMPAGDFEPVKVEYTIKIPILNEGGGAAAPMPIKVKVEVYRMPNGNLFIKFEIEIPGGNKIEFWFPISAG [r5_580_TrROS],3.99 ± 0.26
14,SAPPYYIVIKFKMELPPPTPEDAKEYDPDGEVRRTTVEMTFVIPIPPEDLEDLKDFMQSLGIEEIEIFKSAG [r14_509_TrROS],2.56 ± 0.15
15,SAGGSAGGSANAKIPDGQKVTLDFRVMIMMRMWQFDENGGKMEPRMMMIPIEVEIEIKIPPNASAGGSAGGS [r12_668_TrROS],4.71 ± 0.14
16,SAGEKTVKIKLPNTKTITVKVKKNEKKILYLPNGEKILITDVKKGKVSLKKGITYVKDKNGKWYPLKYKSAG [r5_417_TrMRF],1.37 ± 0.1
17,SAANPKDIVKAEIEIPGKYGAKFTVYTLPDGTVIVPAEVTLIEGDKPVKKPLVLVVDASTGKILAIADASAG [r14_630_TrMRF],1.46 ± 0.042
18,SAGGSAGGSKKKITRIVITDFDPETGKVTVRIRNENGEEETIEVETLEELKELFPDVEVEVIPSAGGSAGGS [r12_403_TrROS_Hall],2.24 ± 0.059
19,SAGGSAGGSSSSTLISVEPSPGIVTVERPLSLDPVPVVERRIMTVSPSSSLSVTETSVFPVSLLSAGGSAGG [r6_970_JUSTAS],1.02 ± 0.15
20,SAGGSAKLNITKILSVEFSEDGTIRIKVENENGELYELEIKVKVIPPPEKPEIDPKYLTPEDLEKYSAGGSA [r15_41_TrMRF],1.6 ± 0.12
21,SAGGSAGGSASIELPPDATVTLTTLDPATGTVTTTTVKVDSTGTTTLATTTTTVDPASAAAASAGGSAGGSA [r18_248_JUSTAS],1.41 ± 0.11
